Drawing on patent publication US20250009799A1, this text covers EC50 of peptide relative to the DCAF4L2 target peptide for one molecule.

This assay addresses SH2D3A peptide on HLA-A*02:01 (human). As to the kind of experiment: T2/peptide TDCC potency screen with TCR2-T-IL12 cells, peptide titration; reference: DCAF4L2 target peptide; full-length, on cells. The note with it: chains Valpha:Vbeta.

B1: TCR2 (protein)
chain 1: EDQVTQSPEALRLQEGESSSLNCSYTVSGLRGLFWYRQDPGKGPEFLFTLYSAGEEKEKERLKATLTKKESFLHITAPKPEDSATYLCAVQAWGGGSQGNLIFGKGTKLSVKP
chain 2: DSGVTQTPKHLITATGQRVTLRCSPRSGDLSVYWYQQSLDQGLQFLIQYYNGEERAKGNILERFSAQQFPDLHSELNLSSLELGDSALYFCASSAGDRGYEQYFGPGTRLTVT
For the molecule B1, the EC50 of peptide relative to the DCAF4L2 target peptide is 87 fold.
